Results published in patent US20020173462A1.

Legend:
human fibrinogen (human) = human fibrinogen (human) (UniProt P02671); test: affinity blot, dilution series of antigen and fibrinogen
[1] = target: human prothrombin (human) (UniProt P00734); test: affinity blot, dilution series of antigen and prothrombin

Row | Substance | amount of protein detected with 10 ng/ml of fibrinogen (human fibrinogen (human)) [ng] | amount of protein detected with 10 ng/ml of prothrombin [1] [ng]
1 | 60 kDa fibrinogen-binding protein (Eap, extracellular adherence protein) | 0.1 | 0.1
2 | 87 kDa fibrinogen-binding protein (coagulase) | 0.1 | –
